Assays:
[1] = target: T1, Complement C1q (UniProt P02745;P02746;P02747 P02745:23-245,P02746:28-253,P02747:29-245); test: filter; MgPBS 37C; conditions: tags: Quidel; chain copies: 6
Protocol: (§1) Individual cloned DNA was T7 transcribed with α-[³²P]-ATP and the full length [³²P]-2′-NH₂-RNA or 2′-F-RNA was gel-purified (as above). RNA was suspended at approximately 5,000 cpm per 30 μL sample (<10 pM), and aliquots were incubated with various concentrations of C1q, C3 or C5 in MgPBS for 10 minutes at 37° C. Samples were then filtered through nitrocellulose, the filters washed with buffer and dried under an infrared lamp, and counted with addition of scintillation fluid (Ecoscint A, National Diagnostics, Atlanta, Ga.). A background sample of RNA alone was run in parallel. […] Filters were washed and counted.

[2] = target: T2, Complement C5 (Homo sapiens, UniProt P01031;P01031 P01031:19-673,P01031:678-1676); test: filter; MgPBS 37C; conditions: tags: Quidel
Protocol: as §1
(§2) Sequences were grouped according to homology and function.

[3] = target: T1, Complement C1q; test: filter; above background at 0.1 and 0.5 nM C1q; conditions: tags: Quidel; chain copies: 6
[4] = target: T2, Complement C5; test: filter; conditions: tags: Quidel
[5] = target: T1, Complement C1q; test: filter; above background; SEQ 13 in listing differs from Table 2 near the 3' end; conditions: tags: Quidel; chain copies: 6
[6] = target: T2, Complement C5; test: filter; minimal binding truncate; conditions: tags: Quidel; stem-loop with UUU bulge
Protocol: as §1

[7] = target: T1, Complement C1q; test: FP; nitrocellulose filter binding, MgPBS 37C; conditions: tags: Quidel; chain copies: 6
Protocol: as §1

[8] = target: T1, Complement C1q; test: filter; MgPBS 37C; SEQ 12 in listing differs from Table 2 near the 3' end; conditions: tags: Quidel; chain copies: 6
Protocol: as §1

[9] = target: T2, Complement C5; test: filter; >10-fold over background at 100 and 10 nM C5; 2'-OMe interference; conditions: tags: Quidel
Text: The partially substituted 2′-OMe oligonucleotides were 5′-[³²P] -kinase-labeled. […] The oligonucleotides were eluted from the protein, alkaline hydrolyzed and then run on a 20% acrylamide/7 M urea/TBE sequencing gel. On adjacent tracks were run oligonucleotides not selected with C5. Band intensities were quantitated with on an Instantlmager (Packard, Meriden, Conn.).

[10] = target: T2, Complement C5; test: filter; reduced binding; conditions: tags: Quidel
[11] = target: T2, Complement C5; test: filter; Kd not given; conditions: tags: Quidel
[12] = target: T2, Complement C5; test: filter; Group I affinities stated very similar; conditions: tags: Quidel
Protocol: as §1, §2

[13] = target: T1, Complement C1q; test: filter; above background; SEQ 20 in listing differs from Table 2; conditions: tags: Quidel; chain copies: 6

T1 sequence (P02745 23-245, chain 1 of 3): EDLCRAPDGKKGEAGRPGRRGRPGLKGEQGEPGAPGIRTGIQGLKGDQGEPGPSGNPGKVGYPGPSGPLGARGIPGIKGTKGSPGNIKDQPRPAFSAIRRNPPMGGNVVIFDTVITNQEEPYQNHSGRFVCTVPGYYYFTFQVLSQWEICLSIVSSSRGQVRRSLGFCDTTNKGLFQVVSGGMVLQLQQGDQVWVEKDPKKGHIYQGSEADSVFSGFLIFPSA
T1 sequence (P02746 28-253, chain 2 of 3): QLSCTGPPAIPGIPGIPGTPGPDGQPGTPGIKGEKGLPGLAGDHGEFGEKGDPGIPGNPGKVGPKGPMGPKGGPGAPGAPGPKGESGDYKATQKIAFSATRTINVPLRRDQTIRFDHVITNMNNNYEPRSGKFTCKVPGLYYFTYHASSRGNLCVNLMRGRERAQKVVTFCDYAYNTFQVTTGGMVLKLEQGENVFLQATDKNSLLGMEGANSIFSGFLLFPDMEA
T1 sequence (P02747 29-245, chain 3 of 3): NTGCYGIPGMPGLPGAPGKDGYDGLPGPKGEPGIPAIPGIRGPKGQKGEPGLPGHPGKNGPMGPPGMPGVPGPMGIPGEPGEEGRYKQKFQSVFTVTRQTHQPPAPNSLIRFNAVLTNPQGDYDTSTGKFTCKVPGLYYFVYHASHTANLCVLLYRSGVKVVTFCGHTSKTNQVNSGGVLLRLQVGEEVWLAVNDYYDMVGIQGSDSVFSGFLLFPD

B1: C1q clone 33 (ssRNA)
RNA: GGGAGGACGAUGCGGGUUGCUGGUAGCCUGAUGUGGGUGGAGUGAGUGGAGGGUUGAAAAAUGCAGACGACUCGCCCGA
modifications: 2'-NH2 pyrimidines
Kd [1]: 3.85 nM

B2: E5c/E11 (ssRNA)
RNA: GGGAGGACGAUGCGGUCCGGCGCGCUGAGUGCCGGUUAUCCUCGUCAGACGACUCGCCCGA
modifications: 2'-F pyrimidines
Kd [2]: 60 nM

B3: C1q clone 3 (ssRNA)
RNA: GGGAGGACGAUGCGGGAGGAGUGGAGGUAAACAAUAGGUCGGUAGCGACUCCCACUAACAGGCCUCAGACGACUCGCCCGA
modifications: 2'-NH2 pyrimidines
binding result [3]: binds

B4: C1q clone 47 (ssRNA)
RNA: GGGAGGACGAUGCGGGUGGAGCGGAGGUUUAUACGGCUGGUAGCUCGAGCUCCCUAACACGCGGUAGACGACUCGCCCGA
modifications: 2'-NH2 pyrimidines
binding result [3]: binds

B5: E4c (ssRNA)
RNA: GGGAGGAGGAUCGGUGUUCAGCAUUCAGAUCUUCAGACGACUCGCCCGA
modifications: 2'-F pyrimidines
Kd [2]: 50 nM

B6: YL-79 (ssRNA)
RNA: GGGAGAUAAGAAUAAACGCUCAAGAACCACGCGGUCUCAGGCGUAGAGUCUGAGUUUACCUUGGUUUUCGACAGGAGGCUCACAACAGGC
modifications: 2'-F pyrimidines
Kd [4]: 15 nM

B7: YL-13 (ssRNA)
RNA: GGGAGAUAAGAAUAAACGCUCAAGGACGCCGCGGUCUCAGGCGCUGAGUCUGAGUUUACCUGCGUCUUCGACAGGAGGCUCACAACAGGC
modifications: 2'-F pyrimidines
Kd [4]: 6 nM

B8: C1q clone 78 (ssRNA)
RNA: GGGAGGACGAUGCGGGUGGAGUGGAGGGUAAACAAUGGCUGGUGGCAUUCGGAAUCUCCCAACGUAGACGACUCGCCCGA
modifications: 2'-NH2 pyrimidines
binding result [5]: binds

B9: C6 38mer truncate (ssRNA)
RNA: CGAUGCGGUCUCAUGCGUCGAGUGUGAGUUUACCUUCG
modifications: 2'-F pyrimidines
Kd [6]: 20 nM

B10: C1q clone 36 (ssRNA)
RNA: GGGAGGACGAUGCGGGAGGAGUGGAGGUAAACAAUAGGCCGGUAGCGACUCCCACUAACAGCCUCAGACGACUCGCCCGA
modifications: 2'-NH2 pyrimidines
Kd [7]: 0.29 nM

B11: C1q clone 12 (ssRNA)
RNA: GGGAGGACGAUGCGGGUGGAGUGGAGGUAAACAAUAGGUCGGUAGCGACUCCCAGUAACGGCCUCAGACGACUCGCCCGA
modifications: 2'-NH2 pyrimidines
binding result [3]: binds

B12: C1q clone 50 (ssRNA)
RNA: GGGAGGACGAUGCGGGUGGAGUGGAGGUAUAACGGCCGGUAGCGCAUCCCACUCGGGUCUGUGCUAGACGACUCGCCCGA
modifications: 2'-NH2 pyrimidines
Kd [8]: 0.979 nM

B13: C1q clone 14 (ssRNA)
RNA: GGGAGGACGAUGCGGCACCUCACCUCCAUAUUGCCGGUUAUCGCGUAGGGUGAGCCCAGACACGACAGACGACUCGCCCGA
modifications: 2'-NH2 pyrimidines
Kd [1]: 2.4 nM

B14: M3010 (ssRNA)
RNA: CGCCGCGGUCUCAGGCGCUGAGUCUGAGUUUACCUGCG
modifications: 2'-F pyrimidines; selected purines 50% 2'-OMe
binding result [9]: binds

B15: M3020 (ssRNA)
RNA: CGCCGCGGUCUCGGGCGCUGAGUCUGAGUUUACCUGCG
modifications: 2'-F pyrimidines; selected purines 50% 2'-OMe
binding result [9]: binds

B16: M3030 (ssRNA)
RNA: CGCCGCGGUCUCAGGCGCUGAGUCUGAGUUUACCUGCG
modifications: 2'-F pyrimidines; selected purines 50% 2'-OMe
binding result [9]: binds

B17: YL-56 (ssRNA)
RNA: GGGAGAUAAGAAUAAACGCUCAAGGUACACGCGGUCUGACGCGCUGAGUGUCAGUUUACCUUGUACUUCGACAGGAGGCUCACAACAGGC
modifications: 2'-F pyrimidines
Kd [4]: 12 nM

B18: A6 (ssRNA)
RNA: GGGAGGACGAUGCGGUCCGGCGCGCUGAGUGCCGGUUUAUCCUCGUCAGACGACUCGCCCGA
modifications: 2'-F pyrimidines
Kd [2]: 35 nM

B19: C6 36mer truncate (ssRNA)
RNA: GAUGCGGUCUCAUGCGUCGAGUGUGAGUUUACCUUC
modifications: 2'-F pyrimidines
Kd [10]: 50 nM

B20: C1q clone 43 (ssRNA)
RNA: GGGAGGACGAUGCGGUUUCUCGGCCAGUAGUUUGCGGGUGGAGUGGAGGUAUAUCUGCGUCCUCGCAGACGACUCGCCCGA
modifications: 2'-NH2 pyrimidines
binding result [3]: binds

B21: C1q clone 40 (ssRNA)
RNA: GGGAGGACGAUGCGGCUGGUAGCAUGUGCAUUGAUGGGAGGAGUGGAGGUCACCGUCAACCGUCAGACGACUCGCCCGA
modifications: 2'-NH2 pyrimidines
binding result [3]: binds

B22: C1q clone 30 (ssRNA)
RNA: GGGAGGACGAUGCGGGUGGAGUGGGGAUCAUACGGCUGGUAGCACGAGCUCCCUAACAGCGGUCAGACGACUCGCCCGA
modifications: 2'-NH2 pyrimidines
binding result [3]: binds

B23: C1q clone 45 (ssRNA)
RNA: GGGAGGACGAUGCGGUGGAGUGGAGGUAUACCGGCCGGUAGCGCAUCCCACUCGGGUCUGUGCUCAGACGACUCGCCCGA
modifications: 2'-NH2 pyrimidines
Kd [1]: 1.38 nM

B24: C1q clone 22 (ssRNA)
RNA: GGGAGGACGAUGCGGGCAUAGUGGGCAUCCCAGGGUUGCCUAACGGCAUCCGGGGUUGUUAUUGGCAGACGACUCGCCCGA
modifications: 2'-NH2 pyrimidines
binding result [3]: binds

B25: C6 42mer truncate (ssRNA)
RNA: GACGAUGCGGUCUCAUGCGUCGAGUGUGAGUUUACCUUCGUC
modifications: 2'-F pyrimidines
binding result [11]: binds

B26: YL-14 (ssRNA)
RNA: GGGAGAUAAGAAUAAACGCUCAAGUACGACGCGGUCCCGUGCGUGGAGUGCGGGUUUACCUUCGUAUUCGACAGGAGGCUCACAACAGGC
modifications: 2'-F pyrimidines
Kd [4]: 25 nM

B27: F8 (ssRNA)
RNA: GGGAGGACGAUGCGGUCUCAUGCGCCGAGUGUGAGUUUACCUUCGUCAGACGACUCGCCCGA
modifications: 2'-F pyrimidines
Kd [2]: 30 nM

B28: K7 (ssRNA)
RNA: GGGAGGACGAUGCGGUCUCAUGCGUCGAGUGUGAGUUUAACUGCGUCAGACGACUCGCCCGA
modifications: 2'-F pyrimidines
binding result [12]: binds

B29: G7 (ssRNA)
RNA: GGGAGGACGAUGCGGUCUGCUACGCUGAGUGGCUGUUUACCUUCGUCAGACGACUCGCCCGA
modifications: 2'-F pyrimidines
binding result [12]: binds

B30: H1 (ssRNA)
RNA: GGGAGGACGAUGCGGUCGGAUGCGCCGAGUCUCCGUUUACCUUCGUCAGACGACUCGCCCGA
modifications: 2'-F pyrimidines
binding result [12]: binds

B31: C9 (ssRNA)
RNA: GGGAGGACGAUGCGGUGAGCGUGUAAAACGGUUUCGAUAGAGCCUCAGACGACUCGCCCGA
modifications: 2'-F pyrimidines
Kd [2]: 45 nM

B32: C1q clone 23c (ssRNA)
RNA: GGGAGGACGAUGCAAGUGGAGUGGAGGUAUAACGGCCGGUAGGCAUCCCACUCGGGCCUAGCUCAGACGACUCGCCCGA
modifications: 2'-NH2 pyrimidines
binding result [3]: binds

B33: C1q clone 67 (ssRNA)
RNA: GGGAGGACGAUGCGGCAGACGACUCGCCCGAGGGGAUCCCCCGGGCCUGCAGGAAUUCGAUAUCAGACGACUCGCCCGA
modifications: 2'-NH2 pyrimidines
binding result [13]: binds

— patent US20030078221, “High affinity nucleic acid ligands of complement system proteins” (Gilead Sciences, Inc., published 2003)
